This is an account of results in article PMC3776215.

A value given as a limit tells only on which side of the number the result lay.

The assay addresses Recombinant human urokinase-type plasminogen activator receptor (uPAR) (human) (UniProt Q03405). Nature of the assay: SPR. In general terms: Surface plasmon resonance follows binding to a sensor surface in real time, without labels.
Sequence of UniProt Q03405 (Q03405 23-305): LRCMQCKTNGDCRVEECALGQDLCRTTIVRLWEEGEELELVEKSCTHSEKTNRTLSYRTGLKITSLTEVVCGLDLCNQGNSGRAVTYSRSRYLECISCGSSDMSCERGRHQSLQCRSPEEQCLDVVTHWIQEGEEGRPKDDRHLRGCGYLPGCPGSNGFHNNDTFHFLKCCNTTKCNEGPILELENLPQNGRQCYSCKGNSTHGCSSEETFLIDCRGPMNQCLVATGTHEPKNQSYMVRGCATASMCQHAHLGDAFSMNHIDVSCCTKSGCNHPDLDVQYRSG
As usually defined, the IC50 is the concentration at which inhibition is half-maximal. For orientation: kon means a measure of how fast the partners come together. With “AE105 (Asp-Cha-Phe-(D)Ser-(D)Arg-Tyr-Leu-Trp-Ser) (peptide)”, the IC50 was determined as 6.7 nM and the kon turned out to be 620000 M⁻¹ s⁻¹.
The term Kd denotes the concentration at which binding is half-saturated. Usually koff stands for the first-order rate constant of dissociation. Turning to CB-TE2A-PA-AE105 (peptide), the IC50 was found to be 6.1 nM, the Kd came to 27 nM, the koff is 0.0108 s⁻¹ and the kon was found to be 400000 M⁻¹ s⁻¹.
For CB-TE2A-AE105^mut (peptide), the IC50 was > 1000 nM.
As to DOTA-AE105^mut (peptide), the IC50 is > 1000 nM.
On to CB-TE2A-AE105 (peptide), for which the IC50 worked out at 5.9 nM, the Kd amounted to 7.7 nM and the koff was 0.0046 s⁻¹.
CB-TE2A-PA-AE105^mut (peptide): the IC50 was > 1000 nM.
Take DOTA-AE105 (peptide): the IC50 was 6.7 nM, the Kd worked out at 9.4 nM, the koff is 0.0043 s⁻¹ and the kon was 460000 M⁻¹ s⁻¹.
